In patent publication US20250011413A1 (MCMASTER UNIVERSITY, published 2025):
Substitutions are numbered along the chain they refer to. In names and notes the source's numbering stands. One block for each binder: values may come before it.

Columns and labels:
[1] = target: T1, PF4/heparin complex (human PF4 complexed with heparin) (human, UniProt P02776 32-101); test: cell-based or functional assay
T1 sequence: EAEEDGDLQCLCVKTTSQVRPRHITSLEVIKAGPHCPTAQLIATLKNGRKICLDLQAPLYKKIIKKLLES

[2] = target: T2, Human PF4 (CXCL4), biotinylated, without heparin (human, UniProt P02776 32-101, biotinylated with EZ-link-Sulfo-NHS-LC-Biotin (sites not given)); test: BLI (Octet), biotinylated PF4 without heparin on streptavidin sensors, scFv 1 µg/mL, 1:1 model
T2 construct: Immobilised on streptavidin biosensors for BLI; also called PF4 alone; platelet factor 4
T2 sequence: T1 sequence
Description: (§1) The Octet-QK Red 96 (FortéBio, Menlo Park, CA) instrumentation was used to conduct all BLI experiments. A 96-well microtiter plate (black, flat-bottom) was used to hold 200 μL per well of either sample or buffer. Pre-coated streptavidin biosensor tips (FortéBio) were hydrated in phosphate buffered saline (PBS) containing 1% bovine serum albumin (BSA, Sigma-Aldrich) before performing all kinetic assays. Each step was performed at an operating temperature of 23° C. with agitation at 1000 rpm. Streptavidin tips were first equilibrated in PBS+1% BSA to establish a baseline. […] The PF4-coated tips were then dipped into PBS+1% BSA for 13 minutes to re-establish a baseline. Tips were then incubated in an analyte solution containing half-fold dilutions of wildtype scFv (4.0, 2.0, 1.0, 0.5, 0.25 μg/mL in PBS+1% BSA) for 10 minutes to measure association. For mutant scFv association, tips were incubated in an analyte solution containing 200 μL of each mutant and wildtype scFv at a final concentration of 1 μg/mL in PBS+1% BSA. Antibody dissociation steps were performed by dipping sensors in wells containing PBS+1% BSA for 56 minutes. The following negative controls included in these kinetic experiments were also measured: 200 μL of buffer to replace both the antigen and scFv and 200 μL buffer replacing scFv only. Each experiment was performed with PF4 or with PF4/heparin as the immobilized antigen.
(§2) BLI experiments were performed to evaluate binding responses and affinities of wildtype and mutant scFv. Biotinylated PF4 alone or complexed with heparin was immobilized on streptavidin biosensors and used to capture wildtype scFv. Half-fold serial dilutions of wildtype scFv ranging from 0.25 μg/mL to 4 μg/mL were used to determine the optimal concentrations for future experiments PF4 (PF4 FIG. 3; PF4/heparin FIG. 4).

[3] = target: T1, PF4/heparin complex (human PF4 …); test: competition EIA, scFv 50 µg/mL; competitor HIT-negative sera antibodies, n=10
[4] = target: T1, PF4/heparin complex (human PF4 …); test: BLI (Octet), biotinylated PF4/heparin on streptavidin sensors, scFv 1 µg/mL, 1:1 model
Description: as §1, §2

[5] = target: T1, PF4/heparin complex (human PF4 …); test: BLI (Octet), biotinylated PF4/heparin on streptavidin sensors, scFv at 1 µg/mL, 1:1 model, mean ± s.d.
Description: BLI experiments were performed using wildtype scFv, mutant B, mutant C, mutant D, mutant E, and mutant F at 1 μg/mL. Binding was measured against immobilized biotinylated PF4/heparin complexes on streptavidin biosensors. b) Table showing kinetic data of wildtype and mutant scFv, including binding responses and association and dissociation rates. All data was analyzed based on a 1:1 homogenous ligand binding model using Octet®) User Software version 3.1.
as §1
BLI experiments were performed to evaluate binding responses and affinities of wildtype and mutant scFv. Biotinylated PF4 alone or complexed with heparin was immobilized on streptavidin biosensors and used to capture wildtype scFv.

[6] = target: T2, Human PF4 (CXCL4), biotinylated, …; test: BLI (Octet), biotinylated PF4 without heparin on streptavidin sensors, scFv 1 µg/mL
Description: as §1, §2

[7] = target: T1, PF4/heparin complex (human PF4 …); test: BLI (Octet), biotinylated PF4/heparin on streptavidin sensors, scFv 1 µg/mL
Description: as §1, §2

[8] = target: T1, PF4/heparin complex (human PF4 …); test: competition EIA, scFv 50 µg/mL; competitor HIT-negative sera antibodies, n=10; remark: listed apart in the source
Description: Inhibitory PF4/heparin IgG-specific Streptavidin Enzyme Immunoassay (EIA). The binding activity of wildtype and mutant scFv antibodies to PF4/heparin complexes was measured using an inhibitory PF4/heparin IgG-specific EIA with a streptavidin-biotin capture system. Before performing this protocol, 96-well NUNC Maxisorp plates (ThermoFisher) were coated with 10 μg/mL streptavidin for 24 h. Plates were then blocked with 3% bovine serum albumin (BSA) in phosphate buffered saline (PBS) for 2 h at room temperature. Plates were then coated with 1 U/mL biotinylated-heparin for 1 h followed by 30 μg/mL PF4 for 1 h. Increasing concentrations of wildtype or mutant scFv were added and incubated for 1 hr at room temperature. Without removing wildtype or scFv, HIT patient sera in a 1:50 dilution or full-length KKO (2 μg/mL) was then incubated for 1 h at room temperature. After washing, alkaline phosphatase-conjugated anti-human or anti-mouse IgG (Jackson Immuno Research Laboratories, Inc., West Grove, PA) was added at a 1:4000 dilution and incubated for 1 h temperature. For detection, 1 mg/mL p-nitrophenylphosphate (PNPP, Sigma-Aldrich) substrate dissolved in 1 mol/L diethanolamine (DEA) buffer (pH 9.6) was added. The optical density (OD) was measured at 2 min intervals for 30 min at 405 nm (OD₄₀₅ₙₘ) using a BioTek 800 TS plate reader (BioTek Instruments Inc., Winooski, VT) to determine if anti-PF4/heparin antibody binding was inhibited. Results were reported as a decrease in OD (absorbance at 405 nm) from baseline levels.
Sera (n=10) from confirmed HIT-negative patients (EIA-positive/SRA-negative) containing anti-PF4/heparin antibodies were then used in the same EIA with scFv constructs to determine if antibody binding was decreased in this cohort (Table 5).

% inhibition of 14C-serotonin release (SRA), HIT-Positive Patient #1 serum, scFv 50 µg/mL [1]: 15.6% | % inhibition of 14C-serotonin release (SRA), HIT-Positive Patient #1 serum, scFv 75 µg/mL [1]: 17.8% | % inhibition of 14C-serotonin release (SRA), HIT-Positive Patient #2 serum, scFv 50 µg/mL [1]: 37.2% | % inhibition of 14C-serotonin release (SRA), HIT-Positive Patient #2 serum, scFv 75 µg/mL [1]: 15.4% | % inhibition of 14C-serotonin release (SRA), HIT-Positive Patient #3 serum, scFv 50 µg/mL [1]: 4.8% | % inhibition of 14C-serotonin release (SRA), HIT-Positive Patient #3 serum, scFv 75 µg/mL [1]: 12% | % inhibition of 14C-serotonin release (SRA), HIT-Positive Patient #4 serum, scFv 50 µg/mL [1]: 6.7% | % inhibition of 14C-serotonin release (SRA), HIT-Positive Patient #4 serum, scFv 75 µg/mL [1]: 4.4% | % inhibition of 14C-serotonin release (SRA), HIT-Positive Patient #5 serum, scFv 50 µg/mL [1]: -6.9% | % inhibition of 14C-serotonin release (SRA), HIT-Positive Patient #5 serum, scFv 75 µg/mL [1]: 20.8% | Kd [2]: 1320 nM | mean % inhibition of serum antibody binding [3]: -38.3% | Kd [4]: 5.38 nM | koff [5]: 0.000519 s⁻¹ | kon [5]: 96700 M⁻¹ s⁻¹ | average binding response (wavelength shift) [6]: 0.0386 nm | average binding response (wavelength shift) [7]: 0.0758 nm | mean OD405nm of bound serum IgG (+ scFv) [8]: 1.41 OD405nm
B1: Wildtype scFv (KKO-derived single chain variable fragment) (scFv)
scFv: DIQMIQSQKFMSTSVGDRVTVTCKASQNVGTNVAWYQQKPGQSPNALIYSASYRYSGVPDRFTGSGSGTDFTLTITNVQSEDLADYFCQQYNSYPLTFGTGTKLDLKGGGGSGGGGSGGGGSVQLQQSGAELVKPGASVKLSCKASGYTFTNYFIYWVKQRPGQGLEWIGEINPRNGDTDFNEKFESRATLTVDKSSSTAYMQLSSLTSEDSAIYYCTRSPYGNNYGFTYWGQGTLVTVSA
notes: VL-(G4S)3 linker-VH; expressed in E. coli BL21 from pADL-22c, purified on Ni-NTA as histidine-tagged scFv, about 28 kDa; also called WT; KKO-scFv; not shown: histidine tag from the pADL-22c vector

% inhibition of 14C-serotonin release (SRA), HIT-Positive Patient #1 serum, scFv 50 µg/mL [1]: 71.1% | % inhibition of 14C-serotonin release (SRA), HIT-Positive Patient #1 serum, scFv 75 µg/mL [1]: 97.8% | % inhibition of 14C-serotonin release (SRA), HIT-Positive Patient #2 serum, scFv 50 µg/mL [1]: 71.8% | % inhibition of 14C-serotonin release (SRA), HIT-Positive Patient #2 serum, scFv 75 µg/mL [1]: 19.2% | % inhibition of 14C-serotonin release (SRA), HIT-Positive Patient #3 serum, scFv 50 µg/mL [1]: 6% | % inhibition of 14C-serotonin release (SRA), HIT-Positive Patient #3 serum, scFv 75 µg/mL [1]: 14.5% | % inhibition of 14C-serotonin release (SRA), HIT-Positive Patient #4 serum, scFv 50 µg/mL [1]: 7.8% | % inhibition of 14C-serotonin release (SRA), HIT-Positive Patient #4 serum, scFv 75 µg/mL [1]: 58.9% | % inhibition of 14C-serotonin release (SRA), HIT-Positive Patient #5 serum, scFv 50 µg/mL [1]: 90.3% | % inhibition of 14C-serotonin release (SRA), HIT-Positive Patient #5 serum, scFv 75 µg/mL [1]: 80.6% | Kd [2]: 1.69 nM | fold change of KD against wildtype scFv [2]: 1000 fold | mean % inhibition of serum antibody binding [3]: -31.4% | Kd [4]: 1.36 nM | fold change of KD against wildtype scFv [4]: 100 fold | koff [5]: 3.91e-05 s⁻¹ | kon [5]: 27600 M⁻¹ s⁻¹ | average binding response (wavelength shift) [6]: 0.267 nm | fold increase of binding response against wildtype scFv [6]: 7 fold | average binding response (wavelength shift) [7]: 0.379 nm | fold increase of binding response against wildtype scFv [7]: 4 fold | mean OD405nm of bound serum IgG (+ scFv) [8]: 1.1 OD405nm
B2: Mutant B scFv, scFv(R18K, N152K, D180N) (scFv)
scFv: B1 scFv with R18K, N152K, D180N
notes: VL-linker-VH; histidine-tagged, from E. coli BL21; also called Mut B; not shown: histidine tag from the pADL-22c vector
